ACC/ACMC = fluorogenic leaving group
Assays:
recombinant hepsin [1] = target: T1, recombinant hepsin (Homo sapiens, UniProt P05981); assay: Cleavage of fluorogenic tetrapeptide substrates by recombinant hepsin expressed in insect cells; type: biochemical; design: Hep136 (covering the prodomain and the catalytic domain); amino acids 46-417; honeybee melittin secretion signal (Mel) (N); made in house; host or cells: SP9 (Sf9) insect cells, baculovirus, pFastBac1; conditions: with and without a histidine tag
Procedure: SP9 cells were infected with recombinant virus at a MOI of 5-10 and the activity of hepsin in the supernatant was monitored by the hydrolysis of a fluorogenic peptide, KRLR-ACC. […] To determine the optimal expression time, activity was monitored for 72 hours after infection.
The activity of hepsin expressed and purified as described above was tested using the following substrates, which were synthesized based on the substrate specificity profile from the positional scanning libraries described above: Acetyl-Pro-Arg-Leu-Arg-ACC/ACMC and Acetyl-Lys-Arg-Leu-Arg-ACC/ACMC.
Target sequence in this assay (P05981 46-417): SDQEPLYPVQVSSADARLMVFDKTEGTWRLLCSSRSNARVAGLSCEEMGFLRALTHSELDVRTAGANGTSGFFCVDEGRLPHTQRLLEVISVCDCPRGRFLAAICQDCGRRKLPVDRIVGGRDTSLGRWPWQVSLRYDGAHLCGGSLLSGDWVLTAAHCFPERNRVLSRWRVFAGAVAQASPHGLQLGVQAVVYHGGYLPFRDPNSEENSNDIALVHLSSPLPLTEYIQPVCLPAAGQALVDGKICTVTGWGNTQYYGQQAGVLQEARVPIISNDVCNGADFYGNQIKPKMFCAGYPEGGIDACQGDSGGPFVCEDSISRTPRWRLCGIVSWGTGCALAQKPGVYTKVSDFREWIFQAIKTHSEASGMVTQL

recombinant hepsin [2] = target: T1, recombinant hepsin; assay: Activation of pro-uPA by hepsin, monitored with uPA substrate GTAR-acc; type: biochemical; design: made in house; conditions: 1 nM recombinant hepsin, 100 μM GTAR-acc; FIG. 10 (squares)
Procedure: To test whether hepsin is capable of activating pro-uPA (and thereby potentially initiating this proteolytic cascade), uPA was screened through a coumarin-based substrate library and a substrate was designed to monitor uPA proteolytic activity. The substrate designed to monitor uPA activity is Acetyl-Gly-Thr-Ala-Arg-[7-amino-4-carbomoylcoumarin] (GTAR-acc). 2 μM of pro-uPA was incubated with 1 nM of recombinant hepsin and 100 μM of GTAR-acc.
Target sequence in this assay (P05981 whole entry, the tested form may be a part): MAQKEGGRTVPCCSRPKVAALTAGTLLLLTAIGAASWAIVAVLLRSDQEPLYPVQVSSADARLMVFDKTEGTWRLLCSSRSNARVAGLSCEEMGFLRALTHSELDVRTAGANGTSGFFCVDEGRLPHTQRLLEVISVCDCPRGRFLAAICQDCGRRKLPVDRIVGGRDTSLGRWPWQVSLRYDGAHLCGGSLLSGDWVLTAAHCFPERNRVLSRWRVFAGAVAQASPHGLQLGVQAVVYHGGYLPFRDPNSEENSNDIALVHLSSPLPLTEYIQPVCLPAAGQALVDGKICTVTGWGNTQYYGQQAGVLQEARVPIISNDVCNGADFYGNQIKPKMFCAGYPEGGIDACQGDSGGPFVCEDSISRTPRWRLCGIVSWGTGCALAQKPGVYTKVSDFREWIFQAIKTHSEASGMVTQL

| Substance | cleavage by recombinant hepsin (recombinant hepsin [1]) | cleavage of GTAR-acc by hepsin (recombinant hepsin [2]) |
| --- | --- | --- |
| Acetyl-Lys-Arg-Leu-Arg-ACC/ACMC (Ac-KRLR-{ACC/ACMC}; also: C-terminal ACC/ACMC fluorophore) [N-acetyl tetrapeptide hepsin substrate with C-terminal coumarin fluorophore (ACC or ACMC)] | efficiently cleaved |  |
| Acetyl-Pro-Arg-Leu-Arg-ACC/ACMC (Ac-PRLR-{ACC/ACMC}; also: C-terminal ACC/ACMC fluorophore) [N-acetyl tetrapeptide hepsin substrate with C-terminal coumarin fluorophore (ACC or ACMC)] | efficiently cleaved |  |
| Acetyl-Gly-Thr-Ala-Arg-[7-amino-4-carbomoylcoumarin] (Ac-GTAR-{7‑amino‑4‑carbamoylcoumarin}) [GTAR-acc] |  | only marginally cleaves |

— US20040009911A1, “Hepsin substrates and prodrugs” (IRM, LLC, priority 2002, published 2004)
